Tests used:
[1] = test system: CTSL1_2 9-mer FRET substrate Mca-ALFFSSPPSK-Dnp
[2] = test system: CTSL1_1 FRET substrate (ALFKSSFP)
[3] = test system: CTSL1_2 8-mer FRET substrate Mca-ALFFSSPPK-Dnp

Sequence of ALU30-18 (chain, as listed by the source): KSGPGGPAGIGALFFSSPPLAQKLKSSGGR
Sequence of ALU30-6 (chain, as listed by the source): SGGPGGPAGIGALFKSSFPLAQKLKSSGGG
Sequence of Cathepsin L (CTSL1), recombinant human (chain, as listed by the source): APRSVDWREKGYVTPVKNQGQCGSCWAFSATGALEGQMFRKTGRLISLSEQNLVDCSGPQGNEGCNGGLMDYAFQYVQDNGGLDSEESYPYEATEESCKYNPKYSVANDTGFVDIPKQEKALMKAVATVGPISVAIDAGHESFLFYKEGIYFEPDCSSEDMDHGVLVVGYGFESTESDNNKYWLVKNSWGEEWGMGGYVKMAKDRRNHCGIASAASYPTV
Sequence of ALU30-16 (chain, as listed by the source): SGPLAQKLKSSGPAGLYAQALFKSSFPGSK
Sequence of ALU30-15 (chain, as listed by the source): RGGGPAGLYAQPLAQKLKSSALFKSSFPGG
Sequence of ALU30-17 (chain, as listed by the source): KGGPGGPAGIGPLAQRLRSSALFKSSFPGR
Sequence of ALU30-13 (chain, as listed by the source): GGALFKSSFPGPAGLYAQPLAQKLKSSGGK
Sequence of ALU30-12 (chain, as listed by the source): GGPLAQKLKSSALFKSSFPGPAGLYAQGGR
Sequence of ALU30-5 (chain, as listed by the source): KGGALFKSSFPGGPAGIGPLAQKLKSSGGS
Sequence of ALU30-14 (chain, as listed by the source): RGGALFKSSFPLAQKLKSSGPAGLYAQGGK
Sequence of ALU30-9 (chain, as listed by the source): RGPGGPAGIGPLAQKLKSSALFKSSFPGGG
Sequence of ALU30-11 (chain, as listed by the source): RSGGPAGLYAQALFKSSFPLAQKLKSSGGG
Sequence of ALU30-10 (chain, as listed by the source): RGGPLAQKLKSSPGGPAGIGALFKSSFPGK
Sequence of ALU30-1 (chain, as listed by the source): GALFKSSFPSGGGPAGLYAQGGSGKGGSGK
Sequence of ALU30-8 (chain, as listed by the source): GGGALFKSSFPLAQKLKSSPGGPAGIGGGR
Sequence of ALU30-7 (chain, as listed by the source): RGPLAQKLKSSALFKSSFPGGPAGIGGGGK
Sequence of ALU30-19 (chain, as listed by the source): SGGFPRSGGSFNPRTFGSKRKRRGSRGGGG
Sequence of ALU30-4 (chain, as listed by the source): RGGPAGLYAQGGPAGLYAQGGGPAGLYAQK
Sequence of ALU30-2 (chain, as listed by the source): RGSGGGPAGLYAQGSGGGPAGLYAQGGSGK
Sequence of ALU30-3 (chain, as listed by the source): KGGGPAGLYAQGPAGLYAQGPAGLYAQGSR

Cathepsin L (CTSL1), recombinant human
30-mer peptide degradation by recombinant enzyme (MSP-MS) (ALU30-17): CTSL1 treatment of the 30-mer peptide library produced cleavages in all peptides bearing a CTSL1_1 or CTSL1_2 motif | 30-mer peptide degradation by recombinant enzyme (MSP-MS) (ALU30-10): The most efficiently cleaved peptides were those containing the FAPa_1, CTSL1_1 and ADAM17_2 motifs, in multiple orders | 30-mer peptide degradation by recombinant enzyme (MSP-MS) (ALU30-7): The most efficiently cleaved peptides were those containing the FAPa_1, CTSL1_1 and ADAM17_2 motifs, in multiple orders | 30-mer peptide cleavage (mass spectrometry) (ALU30-18): Both peptides showed rapid disappearance of substrate (squares) and product formation from cleavage at the target scissile bond | 30-mer peptide degradation by recombinant enzyme (MSP-MS) (ALU30-18): CTSL1 treatment of the 30-mer peptide library produced cleavages in all peptides bearing a CTSL1_1 or CTSL1_2 motif | 30-mer peptide degradation by recombinant enzyme (MSP-MS) (ALU30-14): Peptides bearing the MMP14_1 motif with CTSL1_1 and ADAM17_2 were slightly lower efficiency | 30-mer peptide degradation by recombinant enzyme (MSP-MS) (ALU30-15): Peptides bearing the MMP14_1 motif with CTSL1_1 and ADAM17_2 were slightly lower efficiency | comparison of cleavage efficiencies across the 30-mer library (ALU30-15): it had slightly higher hepsin susceptibility and lower CTSL1 activity | 30-mer peptide degradation by recombinant enzyme (MSP-MS) (ALU30-9): The most efficiently cleaved peptides were those containing the FAPa_1, CTSL1_1 and ADAM17_2 motifs, in multiple orders | FRET substrate cleavage by recombinant enzyme [1]: This 9-mer FRET substrate bearing the CTSL1_2 motif produced comparable catalytic efficiency to the CTSL1_1 motif | 30-mer peptide degradation by recombinant enzyme (MSP-MS) (ALU30-5): The most efficiently cleaved peptides were those containing the FAPa_1, CTSL1_1 and ADAM17_2 motifs, in multiple orders | FRET substrate cleavage by recombinant enzyme [2]: CTSL1 cleaves the FRET substrate bearing the CTSL1_1 motif highly efficiently | 30-mer peptide degradation by recombinant enzyme (MSP-MS) (ALU30-16): Peptides bearing the MMP14_1 motif with CTSL1_1 and ADAM17_2 were slightly lower efficiency | 30-mer peptide degradation by recombinant enzyme (MSP-MS) (ALU30-8): The most efficiently cleaved peptides were those containing the FAPa_1, CTSL1_1 and ADAM17_2 motifs, in multiple orders | 30-mer peptide degradation by recombinant enzyme (MSP-MS) (ALU30-12): Peptides bearing the MMP14_1 motif with CTSL1_1 and ADAM17_2 were slightly lower efficiency | 30-mer peptide degradation by recombinant enzyme (MSP-MS) (ALU30-1): CTSL1 treatment of the 30-mer peptide library produced cleavages in all peptides bearing a CTSL1_1 or CTSL1_2 motif | 30-mer peptide degradation by recombinant enzyme (MSP-MS) (ALU30-11): Peptides bearing the MMP14_1 motif with CTSL1_1 and ADAM17_2 were slightly lower efficiency | 30-mer peptide cleavage (mass spectrometry) (ALU30-6): Both peptides showed rapid disappearance of substrate (squares) and product formation from cleavage at the target scissile bond | 30-mer peptide degradation by recombinant enzyme (MSP-MS) (ALU30-6): The most efficiently cleaved peptides were those containing the FAPa_1, CTSL1_1 and ADAM17_2 motifs, in multiple orders | 30-mer peptide degradation by recombinant enzyme (MSP-MS) (ALU30-13): Peptides bearing the MMP14_1 motif with CTSL1_1 and ADAM17_2 were slightly lower efficiency | FRET substrate cleavage by recombinant enzyme [3]: the new CTSL1_2 motif was not cleaved in the context of an 8-mer FRET peptide

thrombin, recombinant human
30-mer peptide degradation by recombinant enzyme (MSP-MS) (ALU30-17): The two alternate ADAM17 motifs were cleaved with similar efficiency (peptides Alu30-17 vs Alu30-9) | 30-mer peptide degradation by recombinant enzyme (MSP-MS) (ALU30-2): The peptide Alu30-2, bearing two MMP14_1 motifs, was less susceptible to thrombin | 30-mer peptide degradation by recombinant enzyme (MSP-MS) (ALU30-10): Thrombin showed higher activity than Factor Xa, and it cleaved each of the 30-mer peptides | 30-mer peptide degradation by recombinant enzyme (MSP-MS) (ALU30-7): Thrombin showed higher activity than Factor Xa, and it cleaved each of the 30-mer peptides | 30-mer peptide degradation by recombinant enzyme (MSP-MS) (ALU30-18): the CTSL1_2 motif had lower cleavage activity than did the CTSL1_1 motif (peptides Alu30-18 vs Alu30-6) | 30-mer peptide degradation by recombinant enzyme (MSP-MS) (ALU30-14): Thrombin showed higher activity than Factor Xa, and it cleaved each of the 30-mer peptides | 30-mer peptide degradation by recombinant enzyme (MSP-MS) (ALU30-15): the peptides Alu30-12, Alu30-13 and Alu30-15, with MMP141 motifs in combination with ADAM17_2 and CTSL1_1, were cleaved at lower efficiency by thrombin | 30-mer peptide degradation by recombinant enzyme (MSP-MS) (ALU30-9): The two alternate ADAM17 motifs were cleaved with similar efficiency (peptides Alu30-17 vs Alu30-9) | 30-mer peptide degradation by recombinant enzyme (MSP-MS) (ALU30-5): Thrombin showed higher activity than Factor Xa, and it cleaved each of the 30-mer peptides | 30-mer peptide degradation by recombinant enzyme (MSP-MS) (ALU30-3): The peptides Alu30-1 and Alu30-3 were the most rapidly cleaved in the library | 30-mer peptide degradation by recombinant enzyme (MSP-MS) (ALU30-19): Thrombin showed higher activity than Factor Xa, and it cleaved each of the 30-mer peptides | 30-mer peptide degradation by recombinant enzyme (MSP-MS) (ALU30-16): Thrombin showed higher activity than Factor Xa, and it cleaved each of the 30-mer peptides | comparison of cleavage efficiencies across the 30-mer library (ALU30-16): the lowest susceptibility to thrombin, Factor Xa, and hepsin | 30-mer peptide degradation by recombinant enzyme (MSP-MS) (ALU30-8): Thrombin showed higher activity than Factor Xa, and it cleaved each of the 30-mer peptides | 30-mer peptide degradation by recombinant enzyme (MSP-MS) (ALU30-4): Alu30-4 was also an efficient substrate | 30-mer peptide degradation by recombinant enzyme (MSP-MS) (ALU30-12): the peptides Alu30-12, Alu30-13 and Alu30-15, with MMP141 motifs in combination with ADAM17_2 and CTSL1_1, were cleaved at lower efficiency by thrombin | 30-mer peptide degradation by recombinant enzyme (MSP-MS) (ALU30-1): The peptides Alu30-1 and Alu30-3 were the most rapidly cleaved in the library | 30-mer peptide degradation by recombinant enzyme (MSP-MS) (ALU30-11): Thrombin showed higher activity than Factor Xa, and it cleaved each of the 30-mer peptides | 30-mer peptide degradation by recombinant enzyme (MSP-MS) (ALU30-6): the CTSL1_2 motif had lower cleavage activity than did the CTSL1_1 motif (peptides Alu30-18 vs Alu30-6) | 30-mer peptide degradation by recombinant enzyme (MSP-MS) (ALU30-13): the peptides Alu30-12, Alu30-13 and Alu30-15, with MMP141 motifs in combination with ADAM17_2 and CTSL1_1, were cleaved at lower efficiency by thrombin

— patent US20230272028
